Source: IntAct's records for PubMed 13679922

B1: Cullin-3 (Caenorhabditis elegans), Q17391 (parent)
chain: MSGRSGNGGQQKMRIRPFMATIDEQYVTQTWELLKRAIQEIQRKNNSGLSFEELYRNAYTMVLHKHGERLYNGLKDVIQDHMASVRIRIIESMNSGSFLETVAESWADHTVAMVMIRDILMYMDRIYVAQNNHVLPVYNLGLDAYRTEILRQNGIGDRIRDALLELIKLDRKSNQINWHGIKNACDMLISLGIDSRTVYEDEFERPLLKETSDYYRDVCKNWLSGDNDACFYLAQVEIAMHDEASRASRYLDKMTEAKILQVMDDVMVAEHIQTIVYMQNGGVKFMLEHKKIEDLTRIFRIFKRIGDSVTVPGGGLKALLKAVSEYLNETGSNIVKNEDLLKNPVNFVNELLQLKDYFSSLLTTAFADDRDFKNRFQHDFETFLNSNRQSPEFVALYMDDMLRSGLKCVSDAEMDNKLDNVMILFRYLQEKDVFEKYFKQYLAKRLLLDKSCSDDVEKALLAKLKTECGCQFTQKLENMFRDKELWLTLATSFRDWREAQPTKMSIDISLRVLTAGVWPTVQCNPVVLPQELSVAYEMFTQYYTEKHTGRKLTINTLLGNADVKATFYPPPKASMSNEENGPGPSSSGESMKERKPEHKILQVNTHQMIILLQFNHHNRISCQQLMDELKIPERELKRNLQSLALGKASQRILVRKNKGKDAIDMSDEFAVNDNFQSKLTRVKVQMVTGKVESEPEIRETRQKVEDDRKLEVEAAIVRIMKARKKLNHNNLVAEVTQQLRHRFMPSPIIIKQRIETLIEREYLARDEHDHRAYQYIA
partner: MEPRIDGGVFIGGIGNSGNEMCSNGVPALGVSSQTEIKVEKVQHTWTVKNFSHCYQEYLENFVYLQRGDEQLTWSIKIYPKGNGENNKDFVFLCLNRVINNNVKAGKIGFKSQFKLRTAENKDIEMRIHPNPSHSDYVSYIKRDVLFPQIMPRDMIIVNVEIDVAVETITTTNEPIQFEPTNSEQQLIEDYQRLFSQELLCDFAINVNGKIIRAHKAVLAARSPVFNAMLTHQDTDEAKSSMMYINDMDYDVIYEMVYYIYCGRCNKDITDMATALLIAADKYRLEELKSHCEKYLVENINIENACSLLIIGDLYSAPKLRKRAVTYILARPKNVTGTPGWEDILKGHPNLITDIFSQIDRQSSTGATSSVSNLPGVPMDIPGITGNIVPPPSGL
B2: Cullin-3 (Caenorhabditis elegans), Q17391 (parent)
chain: B1 chain
partner: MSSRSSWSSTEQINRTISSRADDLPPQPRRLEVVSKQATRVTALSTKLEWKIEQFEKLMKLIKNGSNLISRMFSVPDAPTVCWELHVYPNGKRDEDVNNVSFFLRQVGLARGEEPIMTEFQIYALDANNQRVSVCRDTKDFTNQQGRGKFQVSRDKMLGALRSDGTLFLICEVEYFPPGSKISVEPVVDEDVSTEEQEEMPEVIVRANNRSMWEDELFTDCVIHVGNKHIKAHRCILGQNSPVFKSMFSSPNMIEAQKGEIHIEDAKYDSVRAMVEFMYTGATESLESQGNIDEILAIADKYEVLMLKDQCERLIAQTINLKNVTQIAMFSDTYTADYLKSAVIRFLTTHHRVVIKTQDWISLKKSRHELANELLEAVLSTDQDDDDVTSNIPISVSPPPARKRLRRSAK
B3: Protein maternal effect lethal 26 (Caenorhabditis elegans), Q94420 (parent)
chain: B1 partner
partner: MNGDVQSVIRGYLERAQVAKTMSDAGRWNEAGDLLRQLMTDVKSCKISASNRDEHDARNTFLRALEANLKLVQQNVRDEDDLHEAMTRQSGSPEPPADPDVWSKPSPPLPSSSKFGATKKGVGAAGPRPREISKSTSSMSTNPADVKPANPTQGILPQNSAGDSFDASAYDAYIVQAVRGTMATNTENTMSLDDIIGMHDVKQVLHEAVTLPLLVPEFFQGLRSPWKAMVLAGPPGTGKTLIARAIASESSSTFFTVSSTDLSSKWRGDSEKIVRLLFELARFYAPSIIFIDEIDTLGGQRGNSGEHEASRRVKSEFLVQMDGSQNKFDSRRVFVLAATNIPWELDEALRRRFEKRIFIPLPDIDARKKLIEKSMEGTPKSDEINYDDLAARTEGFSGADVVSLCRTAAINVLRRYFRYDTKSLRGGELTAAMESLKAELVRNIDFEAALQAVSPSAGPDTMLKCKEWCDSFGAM
B4: Meiotic spindle formation protein mei-1 (Caenorhabditis elegans), P34808-2 (parent)
chain: B3 partner
partner: B1 partner

Variants of: B1
Conditions: with mel26_caeel mel-26, Q94420

Variant	effect of a mutation on the interaction
L49A	decreasing interaction
E52A	decreasing interaction

Variants of: B2
Conditions: with bat42_caeel bath-42, P34371

Variant	effect of a mutation on the interaction
L49A	decreasing interaction
E52A	decreasing interaction

Variants of: B3
Conditions: with mei-1, P34808-2

Variant	effect of a mutation on the interaction
C94Y	decreasing interaction

Variants of: B4
Conditions: with mel26_caeel mel-26, Q94420

Variant	effect of a mutation on the interaction
P99L	decreasing interaction
